Measurements from patent publication US20250154198A1, “PEPTIDE INHIBITORS OF INTERLEUKIN-23 RECEPTOR” (Zealand Pharma A/S, priority 2021, published 2025).
*1 amine or outer side, *2 acyl side, *3 side chain or, on linkers, in order; H or OH if unused. Bridges are numbered along the chain shown (N, C = ends). Primed or numbered codes have the meaning given here. Where no end group is shown, it is not given here. [ ]: non-standard residue; d: D form. 4‑Aminomethyl‑phenylacetyl = 4-aminomethyl-phenylacetyl unit, its amine closes the lactam, O=C(Cc1ccc(CN[*:1])cc1)[*:2]; Q(pyrrolidin)″ = (2S)-2-amino-5-oxo-5-pyrrolidin-1-yl-pentanoic acid, O=C(CC[C@H](N[*:1])C(=O)[*:2])N1CCCC1; 1,3‑dibromopropan‑2‑one(3) = linker giving 1,3-dithio-propan-2-one bridge -SCH2C(=O)CH2S- between Cys; 4‑Aminomethyl‑phenylacetyl″ = N-terminal cap residue, O=C(Cc1ccc(CN[*:1])cc1)[*:2]; Pipz(1-CH2CO,4-CH2CH2NH) = O=C(CN1CCN(CCN[*:1])CC1)[*:2]; Trp(4-F) = N[C@@H](Cc1c[nH]c2cccc(F)c12)C(=O)O; Trp(6-F) = N[C@@H](Cc1c[nH]c2cc(F)ccc12)C(=O)O; Trp(7-F) = N[C@@H](Cc1c[nH]c2c(F)cccc12)C(=O)O; 2Nal = N[C@@H](Cc1ccc2ccccc2c1)C(=O)O; AEF = NCCOc1ccc(C[C@H](N)C(=O)O)cc1; 3Pal = N[C@@H](Cc1cccnc1)C(=O)O; αMeL = CC(C)C[C@](C)(N)C(=O)O; CH2COCH2 = O=C(C[*:1])C[*:2]; αMeV = CC(C)[C@](C)(N)C(=O)O; dDab = NCC[C@@H](N)C(=O)O; Orn = NCCC[C@H](N)C(=O)O; Dab = NCC[C@H](N)C(=O)O; Ahx = NCCCCCC(=O)O; βAla = NCCC(=O)O

T1: human IL-23R endogenously expressed on DB cells (CRL-2289) (human, UniProt Q5VWK5 24-629)
T1 sequence (looked up): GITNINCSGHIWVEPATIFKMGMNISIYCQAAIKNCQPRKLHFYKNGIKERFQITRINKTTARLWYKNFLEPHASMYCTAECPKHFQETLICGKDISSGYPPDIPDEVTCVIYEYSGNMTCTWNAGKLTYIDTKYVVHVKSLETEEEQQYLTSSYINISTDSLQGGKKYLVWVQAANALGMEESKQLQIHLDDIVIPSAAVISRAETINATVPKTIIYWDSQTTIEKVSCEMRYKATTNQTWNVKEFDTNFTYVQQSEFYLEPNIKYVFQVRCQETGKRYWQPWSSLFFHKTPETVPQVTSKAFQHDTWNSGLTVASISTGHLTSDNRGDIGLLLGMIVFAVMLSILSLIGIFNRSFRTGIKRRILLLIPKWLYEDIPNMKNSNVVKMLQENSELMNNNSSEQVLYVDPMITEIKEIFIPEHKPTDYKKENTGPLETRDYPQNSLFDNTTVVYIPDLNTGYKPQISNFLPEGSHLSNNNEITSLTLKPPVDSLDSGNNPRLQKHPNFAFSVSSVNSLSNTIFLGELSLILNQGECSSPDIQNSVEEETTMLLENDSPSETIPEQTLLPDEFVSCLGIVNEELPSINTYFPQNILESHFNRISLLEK


Target: T1, human IL-23R endogenously expressed on …
Assay: cell-based or functional assay

IC50 (pSTAT3)	Binder
8.89 nM	[Ahx]SCWQC[AEF][2Nal][αMeL]E[dR]-NH2 (lactam (positions not given here); linker 3-6 via CH2COCH2; not fully specified (bridges); printed as [6-Aminohexanoyl](1c)*SC(2a)WQC(2a)[Y(2-aminoethoxy)][2-Nal][2-Me-Leu]E(1c)[{d}R]-[NH2]) [Compound 87]
15.8 nM	[Pipz(1-CH2CO,4-CH2CH2NH)]SCWQC[AEF][2Nal][αMeL]E[dR]-NH2 (lactam (positions not given here); linker 3-6 via CH2COCH2; not fully specified (bridges); printed as [(4-(2-Aminoethyl)-piperazine-1-yl)-acetyl](1c)*SC(2a)WQC(2a)[Y(2-aminoethoxy)][2-Nal][2-Me-Leu]E(1c)[{d}R]-[NH2]) [Compound 90]
30.2 nM	[4‑Aminomethyl‑phenylacetyl]SE[Trp(7-F)]Q[Dab][AEF][2Nal][αMeL]E[Dab]-NH2 (lactam N-10, 3-6; SMILES CC(C)C[C@]1(C)NC(=O)[C@H](Cc2ccc3ccccc3c2)NC(=O)[C@H](Cc2ccc(OCCN)cc2)NC(=O)[C@@H]2CCNC(=O)CC[C@H](NC(=O)[C@H](CO)NC(=O)Cc3ccc(cc3)CNC(=O)CC[C@@H](C(=O)N[C@@H](CCN)C(N)=O)NC1=O)C(=O)N[C@@H](Cc1c[nH]c3c(F)cccc13)C(=O)N[C@@H](CCC(N)=O)C(=O)N2) [Compound 139]
39.4 nM	[4‑Aminomethyl‑phenylacetyl]SE[Trp(4-F)]Q[Dab][AEF][2Nal][αMeL]E[Dab]-NH2 (lactam N-10, 3-6; SMILES CC(C)C[C@]1(C)NC(=O)[C@H](Cc2ccc3ccccc3c2)NC(=O)[C@H](Cc2ccc(OCCN)cc2)NC(=O)[C@@H]2CCNC(=O)CC[C@H](NC(=O)[C@H](CO)NC(=O)Cc3ccc(cc3)CNC(=O)CC[C@@H](C(=O)N[C@@H](CCN)C(N)=O)NC1=O)C(=O)N[C@@H](Cc1c[nH]c3cccc(F)c13)C(=O)N[C@@H](CCC(N)=O)C(=O)N2) [Compound 138]
10.6 nM	[4‑Aminomethyl‑phenylacetyl]SCWQC[AEF][2Nal][αMeL]E[dR]-OH (lactam N-10; linker 3-6 via 1,3‑dibromopropan‑2‑one(3)) [Compound 108]
8.8 nM	[4‑Aminomethyl‑phenylacetyl]SEWQ[Dab][AEF][2Nal][αMeV]E[Dab]-NH2 (lactam N-10, 3-6; SMILES CC(C)[C@]1(C)NC(=O)[C@H](Cc2ccc3ccccc3c2)NC(=O)[C@H](Cc2ccc(OCCN)cc2)NC(=O)[C@@H]2CCNC(=O)CC[C@H](NC(=O)[C@H](CO)NC(=O)Cc3ccc(cc3)CNC(=O)CC[C@@H](C(=O)N[C@@H](CCN)C(N)=O)NC1=O)C(=O)N[C@@H](Cc1c[nH]c3ccccc13)C(=O)N[C@@H](CCC(N)=O)C(=O)N2) [Compound 136]
8.54 nM	Ac-KTCWQC[AEF][2Nal][αMeL]E[dR]-NH2 (lactam 1-10; linker 3-6 via CH2COCH2; SMILES CC(=O)N[C@H]1CCCCNC(=O)CC[C@@H](C(=O)N[C@H](CCCNC(=N)N)C(N)=O)NC(=O)[C@](C)(CC(C)C)NC(=O)[C@H](Cc2ccc3ccccc3c2)NC(=O)[C@H](Cc2ccc(OCCN)cc2)NC(=O)[C@@H]2CSCC(=O)CSC[C@H](NC(=O)[C@H]([C@@H](C)O)NC1=O)C(=O)N[C@@H](Cc1c[nH]c3ccccc13)C(=O)N[C@@H](CCC(N)=O)C(=O)N2) [Compound 85]
0.0253 nM	[4‑Aminomethyl‑phenylacetyl″]S[Dab]WQE[AEF][2Nal][αMeL]E[Dab][3Pal]-NH2 (lactam N-10, 3-6; SMILES CC(C)C[C@]1(C)NC(=O)[C@H](Cc2ccc3ccccc3c2)NC(=O)[C@H](Cc2ccc(OCCN)cc2)NC(=O)[C@@H]2CCC(=O)NCC[C@H](NC(=O)[C@H](CO)NC(=O)Cc3ccc(cc3)CNC(=O)CC[C@@H](C(=O)N[C@@H](CCN)C(=O)N[C@@H](Cc3cccnc3)C(N)=O)NC1=O)C(=O)N[C@@H](Cc1c[nH]c3ccccc13)C(=O)N[C@@H](CCC(N)=O)C(=O)N2) [Compound 123]
18.9 nM	[4‑Aminomethyl‑phenylacetyl]SCWQC[AEF][2Nal][αMeL]E[dQ]-NH2 (lactam N-10; linker 3-6 via 1,3‑dibromopropan‑2‑one(3)) [Compound 115]
21.5 nM	[4‑Aminomethyl‑phenylacetyl]SCWQC[AEF][2Nal][αMeL]E[dDab]((2-(trimethyl-2-aminoethoxy)ethoxy)propyl)-NH2 (lactam N-10; linker 3-6 via 1,3‑dibromopropan‑2‑one(3)) [Compound 109]
0.117 nM	[4‑Aminomethyl‑phenylacetyl]SEWQ[Orn][AEF][2Nal][αMeL]E[Dab][3Pal]-NH2 (lactam N-10, 3-6; SMILES CC(C)C[C@]1(C)NC(=O)[C@H](Cc2ccc3ccccc3c2)NC(=O)[C@H](Cc2ccc(OCCN)cc2)NC(=O)[C@@H]2CCCNC(=O)CC[C@H](NC(=O)[C@H](CO)NC(=O)Cc3ccc(cc3)CNC(=O)CC[C@@H](C(=O)N[C@@H](CCN)C(=O)N[C@@H](Cc3cccnc3)C(N)=O)NC1=O)C(=O)N[C@@H](Cc1c[nH]c3ccccc13)C(=O)N[C@@H](CCC(N)=O)C(=O)N2) [Compound 124]
22.7 nM	[4‑Aminomethyl‑phenylacetyl][Q(pyrrolidin)″]EWQ[Dab][AEF][2Nal][αMeL]E[Dab]-NH2 (lactam N-10, 3-6; SMILES CC(C)C[C@]1(C)NC(=O)[C@H](Cc2ccc3ccccc3c2)NC(=O)[C@H](Cc2ccc(OCCN)cc2)NC(=O)[C@@H]2CCNC(=O)CC[C@H](NC(=O)[C@H](CCC(=O)N3CCCC3)NC(=O)Cc3ccc(cc3)CNC(=O)CC[C@@H](C(=O)N[C@@H](CCN)C(N)=O)NC1=O)C(=O)N[C@@H](Cc1c[nH]c3ccccc13)C(=O)N[C@@H](CCC(N)=O)C(=O)N2) [Compound 145]
11.3 nM	[4‑Aminomethyl‑phenylacetyl″]SCWQC[AEF][2Nal][αMeL]E[dH]-NH2 (lactam N-10; linker 3-6 via 1,3‑dibromopropan‑2‑one(3)) [Compound 117]
0.367 nM	[4‑Aminomethyl‑phenylacetyl]SCWQC[AEF][Trp(6-F)][αMeL]E[Dab][3Pal]-NH2 (lactam N-10; linker 3-6 via 1,3‑dibromopropan‑2‑one(3)) [Compound 121]
12.5 nM	Ac-KSCWQC[AEF][2Nal][αMeL]E[dR]-NH2 (lactam 1-10; linker 3-6 via CH2COCH2; SMILES CC(=O)N[C@H]1CCCCNC(=O)CC[C@@H](C(=O)N[C@H](CCCNC(=N)N)C(N)=O)NC(=O)[C@](C)(CC(C)C)NC(=O)[C@H](Cc2ccc3ccccc3c2)NC(=O)[C@H](Cc2ccc(OCCN)cc2)NC(=O)[C@@H]2CSCC(=O)CSC[C@H](NC(=O)[C@H](CO)NC1=O)C(=O)N[C@@H](Cc1c[nH]c3ccccc13)C(=O)N[C@@H](CCC(N)=O)C(=O)N2) [Compound 84]
28 nM	[4‑Aminomethyl‑phenylacetyl]VEWQ[Dab][AEF][2Nal][αMeL]E[Dab]-NH2 (lactam N-10, 3-6; SMILES CC(C)C[C@]1(C)NC(=O)[C@H](Cc2ccc3ccccc3c2)NC(=O)[C@H](Cc2ccc(OCCN)cc2)NC(=O)[C@@H]2CCNC(=O)CC[C@H](NC(=O)[C@H](C(C)C)NC(=O)Cc3ccc(cc3)CNC(=O)CC[C@@H](C(=O)N[C@@H](CCN)C(N)=O)NC1=O)C(=O)N[C@@H](Cc1c[nH]c3ccccc13)C(=O)N[C@@H](CCC(N)=O)C(=O)N2) [Compound 126]
16.7 nM	[4‑Aminomethyl‑phenylacetyl]SCWQC[AEF][2Nal][αMeL]E[βAla]-NH2 (lactam N-10; linker 3-6 via 1,3‑dibromopropan‑2‑one(3)) [Compound 119]
> 1 µM	DESCWQCWWLXR (HELM PEPTIDE1{D.E.S.C.W.Q.C.W.W.L.[Dab].R.[am]}|CHEM1{[O=C(C[*:1])C[*:2]]}$PEPTIDE1,PEPTIDE1,2:R3-11:R3|PEPTIDE1,CHEM1,4:R3-1:R1|PEPTIDE1,CHEM1,7:R3-1:R2$$$V2.0; SMILES CC(C)C[C@@H]1NC(=O)[C@H](Cc2c[nH]c3ccccc23)NC(=O)[C@H](Cc2c[nH]c3ccccc23)NC(=O)[C@@H]2CSCC(=O)CSC[C@H](NC(=O)[C@H](CO)NC(=O)[C@@H](NC(=O)[C@@H](N)CC(=O)O)CCC(=O)NCC[C@@H](C(=O)N[C@@H](CCCNC(=N)N)C(N)=O)NC1=O)C(=O)N[C@@H](Cc1c[nH]c3ccccc13)C(=O)N[C@@H](CCC(N)=O)C(=O)N2) [Compound 9]
